These are literature values, as cited in paper PMC5672155.

What is called Kd is a measure of binding affinity in units of concentration.

Among the targets are Sec63 (Homo sapiens) (UniProt Q9UGP8); Sec61α (Homo sapiens) (UniProt P61619); LC3 (Homo sapiens) (UniProt Q9GZQ8); Sec62 (Homo sapiens) (UniProt Q99442).
UniProt Q99442, sequence (Q99442 whole entry): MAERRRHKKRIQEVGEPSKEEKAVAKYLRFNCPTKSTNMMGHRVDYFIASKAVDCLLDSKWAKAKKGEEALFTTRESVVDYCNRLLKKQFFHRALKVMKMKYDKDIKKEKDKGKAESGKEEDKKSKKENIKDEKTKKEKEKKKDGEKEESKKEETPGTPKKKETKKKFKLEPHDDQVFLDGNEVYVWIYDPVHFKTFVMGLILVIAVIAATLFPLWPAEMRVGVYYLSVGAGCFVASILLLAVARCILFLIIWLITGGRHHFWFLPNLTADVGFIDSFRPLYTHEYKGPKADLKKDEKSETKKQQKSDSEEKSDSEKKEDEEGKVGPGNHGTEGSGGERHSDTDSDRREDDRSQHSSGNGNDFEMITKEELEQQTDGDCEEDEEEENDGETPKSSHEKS
UniProt P61619, sequence (P61619 whole entry): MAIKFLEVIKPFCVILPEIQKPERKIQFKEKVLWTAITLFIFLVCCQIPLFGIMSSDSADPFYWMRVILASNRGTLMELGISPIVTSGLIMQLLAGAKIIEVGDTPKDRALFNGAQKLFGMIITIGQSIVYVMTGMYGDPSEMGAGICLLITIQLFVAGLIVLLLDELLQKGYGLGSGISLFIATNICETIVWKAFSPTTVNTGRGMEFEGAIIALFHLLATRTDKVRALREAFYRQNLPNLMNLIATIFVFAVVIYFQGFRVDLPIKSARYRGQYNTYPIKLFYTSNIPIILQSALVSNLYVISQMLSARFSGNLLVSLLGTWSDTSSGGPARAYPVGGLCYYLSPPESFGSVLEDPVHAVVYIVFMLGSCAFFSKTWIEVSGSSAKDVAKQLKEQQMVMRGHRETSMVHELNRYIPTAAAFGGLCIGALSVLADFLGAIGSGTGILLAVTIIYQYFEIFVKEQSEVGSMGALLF

On to BiP (from UniProt P11021), for which the equilibrium dissociation constant (Kd) with Sec63 (Homo sapiens) was 5 µM; with Sec61α (Homo sapiens) it was 500 µM.
As for Sec62 (from UniProt Q99442), in the data set with LC3 (Homo sapiens), the Kd was 20 µM.
For Sec63 (from UniProt Q9UGP8), in the data set with Sec62 (Homo sapiens), the Kd is 5 nM.
